# Data as given in US20160137696A1 (Bristol-Myers Squibb, published 2016).
# Starred links: 1 amine or outer side, 2 acyl side, 3 side chain; linkers in the order of their positions; H or OH if unused. Positions of bridges follow the written chain, without caps; N, C: chain ends. Non-standard residues stand in square brackets, D forms with d. Groups on a side chain read outwards from the residue. Primed or numbered codes have the meaning given here. No end group written: not given here. *: point of attachment. PEG8′ = PEG8 unit (23-azido-3,6,9,12,15,18,21-heptaoxatricosyl, i.e. an eight-unit PEG spacer) linking the triazole to vitamin E succinate; PEG11′ = PEG11 spacer (eleven ethylene glycol units, 3,6,...,33-undecaoxa) between the triazole and gamma-Glu-C18 diacid; PEG6′ = PEG6 spacer (17-azido-3,6,9,12,15-pentaoxaheptadecyl) linking the triazole to vitamin E succinate; Pra″ = its azide, alkyne or alkene has reacted where a group follows in round brackets; Pra(3) = propargylglycine, clicked to an azide to give a triazolyl-alanine; triazole = 1,2,3-triazole formed by click of the Pra alkyne with the azide; Trp(1-CH2CO) = O=C([C@H](Cc1cn(CC(=O)[*:3])c2ccccc12)N[*:1])[*:2]; Phe(3,4,5-F3) = N[C@@H](Cc1cc(F)c(F)c(F)c1)C(=O)O; C18 diacid = O=C(O)CCCCCCCCCCCCCCCCC(=O)*; γGlu = O=C(O)[C@H](CCC(=O)[*:2])N[*:1]; Aha = [N-]=[N+]=NCC[C@H](N)C(=O)O; Hyp = O=C(O)[C@@H]1C[C@@H](O)CN1; NMeF = CN[C@@H](Cc1ccccc1)C(=O)O; F3Phe = trifluoro-phenylalanine; NMeE = CN[C@@H](CCC(=O)O)C(=O)O; NMeNle = CCCC[C@H](NC)C(=O)O; Suc = O=C(CCC(=O)[*:2])[*:1]; triazole″ = not defined here; Bzt = benzothienylalanine; NMeA = CN[C@@H](C)C(=O)O; Orn = NCCC[C@H](N)C(=O)O; PEG4′ = not defined here; Pra = C#CC[C@H](N)C(=O)O; Dap = NC[C@H](N)C(=O)O; Sar = CNCC(=O)O
# B1: INT-1400G (peptide)
# peptide: {CH2CO}-Y[NMeA]NP[Dap]L[Hyp]WSW[NMeNle][NMeNle]RCG[Pra]
# modifications: thioether N-14; not fully specified (C-terminus); printed as ClAc-Tyr-mAla-Asn-Pro-Dap-Leu-Hyp-Trp-Ser-Trp-mNle-mNle-Arg-Cys-Gly-[(S)-propargylglycine]
# notes: also called Intermediate 1400G
# B2: INT-1400K (peptide)
# peptide: {CH2CO}-[F3Phe][NMeF][NMeNle][dP]DV[NMeF][Orn][dP]WYLCG[Pra]
# modifications: thioether N-13; not fully specified (C-terminus); printed as ClAc-F3Phe-mPhe-mNle-dPro-Asp-Val-mPhe-Orn-dPro-Trp-Tyr-Leu-Cys-Gly-[(S)-propargylglycine]
# notes: also called Intermediate 1400K
# B3: INT-1300Y (peptide)
# peptide: {CH2CO}-Y[NMeA]DPHK[Hyp]WK[Trp(1-CH2CO)][NMeNle][NMeNle]ECG[Pra]-OH
# modifications: thioether N-14
# SMILES: C#CC[C@H](NC(=O)CNC(=O)[C@@H]1CSCC(=O)N[C@@H](Cc2ccc(O)cc2)C(=O)N(C)[C@@H](C)C(=O)N[C@@H](CC(=O)O)C(=O)N2CCC[C@H]2C(=O)N[C@@H](Cc2c[nH]cn2)C(=O)N[C@@H](CCCCN)C(=O)N2C[C@H](O)C[C@H]2C(=O)N[C@@H](Cc2c[nH]c3ccccc23)C(=O)N[C@@H](CCCCN)C(=O)N[C@@H](Cc2cn(CC(=O)O)c3ccccc23)C(=O)N(C)[C@@H](CCCC)C(=O)N(C)[C@@H](CCCC)C(=O)N[C@@H](CCC(=O)O)C(=O)N1)C(=O)O
# notes: also called Intermediate 1300Y
# B4: INT-1400D (peptide)
# peptide: {CH2CO}-Y[NMeA]DPHK[Hyp]WK[Trp(1-CH2CO)][NMeNle][NMeNle]ECG[Pra]G
# modifications: thioether N-14; not fully specified (C-terminus); printed as ClAc-Tyr-mAla-Asp-Pro-His-Lys-Hyp-Trp-Lys-“Trp”-mNle-mNle-Glu-Cys-Gly-[(S)-propargylglycine]-Gly
# B5: INT-1400C (peptide)
# peptide: {CH2CO}-Y[NMeA]DPHQ[Hyp]WSW[NMeNle][NMeNle]ECG[Pra]G
# modifications: thioether N-14; not fully specified (C-terminus); printed as ClAc-Tyr-mAla-Asp-Pro-His-Gln-Hyp-Trp-Ser-Trp-mNle-mNle-Glu-Cys-Gly-[(S)-propargylglycine]-Gly
# notes: also called Intermediate 1400C
# B6: INT-1400F (peptide)
# peptide: {CH2CO}-Y[NMeA]DPHK[Hyp]WKW[NMeNle][NMeNle]ECG[Pra]
# modifications: thioether N-14; not fully specified (C-terminus); printed as ClAc-Tyr-mAla-Asp-Pro-His-Lys-Hyp-Trp-Lys-Trp-mNle-mNle-Glu-Cys-Gly-[(S)-propargylglycine]
# notes: also called Intermediate 1400F
# B7: INT-1400A (peptide)
# peptide: {CH2CO}-Y[NMeA]DPHK[Hyp]WKW[NMeNle][NMeNle]ECG[Pra]G
# modifications: thioether N-14; not fully specified (C-terminus); printed as ClAc-Tyr-mAla-Asp-Pro-His-Lys-Hyp-Trp-Lys-Trp-mNle-mNle-Glu-Cys-Gly-[(S)-propargylglycine]-Gly
# notes: also called Intermediate 1400A
# B8: INT-1400E (peptide)
# peptide: {CH2CO}-Y[NMeA]DPHK[Hyp]WK[Trp(1-CH2CO)][NMeNle][NMeNle]ECG[Pra]D
# modifications: thioether N-14; not fully specified (C-terminus); printed as ClAc-Tyr-mAla-Asp-Pro-His-Lys-Hyp-Trp-Lys-“Trp”-mNle-mNle-Glu-Cys-Gly-[(S)-propargylglycine]-Asp
# notes: also called Intermediate 1400E
# B9: INT-1400B (peptide)
# peptide: {CH2CO}-Y[NMeA]DPHK[Hyp]WKW[NMeNle][NMeNle]ECG[Pra]D
# modifications: thioether N-14; not fully specified (C-terminus); printed as ClAc-Tyr-mAla-Asp-Pro-His-Lys-Hyp-Trp-Lys-Trp-mNle-mNle-Glu-Cys-Gly-[(S)-propargylglycine]-Asp
# notes: also called Intermediate 1400B
# B10: Example 3619 (peptide)
# peptide: {CH2CO}-F[NMeF][NMeNle][Sar]DV[NMeF]Y[NMeE]WYLCGGGK-NH2
# modifications: thioether N-13
# SMILES: CCCC[C@H]1C(=O)N(C)CC(=O)N[C@@H](CC(=O)O)C(=O)N[C@@H](C(C)C)C(=O)N(C)[C@@H](Cc2ccccc2)C(=O)N[C@@H](Cc2ccc(O)cc2)C(=O)N(C)[C@@H](CCC(=O)O)C(=O)N[C@@H](Cc2c[nH]c3ccccc23)C(=O)N[C@@H](Cc2ccc(O)cc2)C(=O)N[C@@H](CC(C)C)C(=O)N[C@H](C(=O)NCC(=O)NCC(=O)NCC(=O)N[C@@H](CCCCN)C(N)=O)CSCC(=O)N[C@@H](Cc2ccccc2)C(=O)N(C)[C@@H](Cc2ccccc2)C(=O)N1C
# notes: order read from the list of couplings, which runs from C- to N-terminus
# B11: Example 3214 (peptide)
# peptide: {CH2CO}-[Phe(3,4,5-F3)][NMeF][NMeNle]PDV[NMeF]Y[NMeE]WYLCGGGK-NH2
# modifications: thioether N-13; not fully specified (residue 4); printed as ClAc-Phe(3,4,5-tri-F)-[N-Me]Phe-[N-Me]Nle-cis-(D)-Pro(4-OH)-Asp-Val-[N-Me]Phe-Tyr-[N-Me]Glu-Trp-Tyr-Leu-Cys-Gly-Gly-Gly-Lys
# notes: as for B10
# B12: INT-1400H (peptide)
# peptide: {CH2CO}-Y[NMeA]DPHQ[Hyp]WSW[NMeNle][NMeNle]ECG[Pra]
# modifications: thioether N-14; not fully specified (C-terminus); printed as ClAc-Tyr-mAla-Asp-Pro-His-Gln-Hyp-Trp-Ser-Trp-mNle-mNle-Glu-Cys-Gly-[(S)-propargylglycine]
# notes: also called Intermediate 1400H
# B13: Example 14087 (peptide)
# peptide: FFXPDVFXPWYLCGX
# modifications: as m16 (INT 1400K); Pra triazole-linked to vitamin E succinate 5-azidopentylamide
# B14: Example 14054 (peptide)
# peptide: YADPHQPWSWXXECGXG
# modifications: as m108 (INT 1400C); Pra triazole-linked to vitamin E succinate 5-azidopentylamide
# B15: Example 14056 (peptide)
# peptide: YADPHKPWKWXXECGXD
# modifications: as m107 (INT 1400B); Pra triazole-linked to vitamin E succinate 5-azidopentylamide
# B16: Example 14051 (peptide)
# peptide: YADPHKPWKWXXECGXG
# modifications: as m106 (INT 1400A); Pra triazole-linked to vitamin E succinate 5-azidopentylamide
# Biological target: T1, Recombinant Human PD-L1-TVMV-His (human, UniProt Q9NZQ7 19-239)
# T1 construct: expressed in HEK293T cells; also called PD-L1-His; hPD-L1(19-239)-TVMV-His
# T1 sequence (Q9NZQ7 other isoform, or with tags, fused parts or gaps limits assumed): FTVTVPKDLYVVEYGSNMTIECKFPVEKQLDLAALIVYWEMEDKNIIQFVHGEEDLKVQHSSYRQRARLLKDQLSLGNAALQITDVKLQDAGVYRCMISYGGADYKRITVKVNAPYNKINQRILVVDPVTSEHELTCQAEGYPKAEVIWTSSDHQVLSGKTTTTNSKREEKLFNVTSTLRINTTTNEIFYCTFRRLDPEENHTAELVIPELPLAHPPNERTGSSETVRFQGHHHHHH
# Assay: HTRF vs PD-1-Ig; C = IC50 0.0003-0.0099 µM
# Description: (§1) Homogenous Time-Resolved Fluorescence (HTRF) Assays of Binding of Soluble PD-1 to Soluble PD-L1. Soluble PD-1 and soluble PD-L1 refers to proteins with carboxyl-end truncations that remove the transmembrane-spanning regions and are fused to heterologous sequences, specifically the Fc portion of the human immunoglobuling G sequence (Ig) or the hexahistidine epitope tag (His). All binding studies were performed in an HTRF assay buffer consisting of dPBS supplemented with 0.1% (w/v) bovine serum albumin and 0.05% (v/v) Tween-20. For the PD-1-Ig/PD-L1-His binding assay, inhibitors were pre-incubated with PD-L1-His (10 nM final) for 15 m in 4 μl of assay buffer, followed by addition of PD-1-Ig (20 nM final) in 1 μl of assay buffer and further incubation for 15 m. PD-L1 fusion proteins from either human, cynomologous macaques, mouse, or other species were used. HTRF detection was achieved using europium crypate-labeled anti-Ig monoclonal antibody (1 nM final) and allophycocyanin (APC) labeled anti-His monoclonal antibody (20 nM final). Antibodies were diluted in HTRF detection buffer and 5 μl was dispensed on top of binding reaction. The reaction was allowed to equilibrate for 30 minutes and signal (665 nm/620 nm ratio) was obtained using an EnVision fluorometer. Additional binding assays were established between PD-I-Ig/PD-L2-His (20 and 5 nM, respectively), CD80-His/PD-L1-Ig (100 and 10 nM, respectively) and CD80-His/CTLA4-Ig (10 and 5 nM, respectively). Binding/competition studies between biotinylated Compound No. 71 and human PD-L1-His were performed as follows. Macrocyclic peptide inhibitors were pre-incubated with PD-L1-His (10 nM final) for 60 minutes in 4 μl of assay buffer followed by addition of biotinylated Compound No. 71 (0.5 nM final) in 1 μl of assay buffer. Binding was allowed to equilibrate for 30 minutes followed by addition of europium crypated labeled Streptavidin (2.5 pM final) and APC-labeled anti-His (20 nM final) in 5 μl of HTRF buffer. The reaction was allowed to equilibrate for 30 m and signal (665 nm/620 nm ratio) was obtained using an EnVision fluorometer.
row,IC50,Binder
1,0.3 to 9.9 nM,B1
2,0.3 to 9.9 nM,B2
3,0.3 to 9.9 nM,B3
4,0.3 to 9.9 nM,B4
5,0.3 to 9.9 nM,{CH2CO}-Y[NMeA]NP[Dap]L[Hyp]WS[Bzt][NMeNle][NMeNle]RCGG[Aha] (thioether N-14) [INT-1300C]
6,0.3 to 9.9 nM,{CH2CO}-Y[NMeA]DPHK[Hyp]WK[Trp(1-CH2CO)][NMeNle][NMeNle]ECG[Pra″]([triazole-PEG11′-γGlu-C18 diacid]) (thioether N-14) [Example 14092]
7,0.3 to 9.9 nM,B5
8,0.3 to 9.9 nM,B6
9,0.3 to 9.9 nM,B7
10,0.3 to 9.9 nM,B8
11,0.3 to 9.9 nM,B9
12,0.3 to 9.9 nM,B10
13,0.3 to 9.9 nM,B11
14,0.3 to 9.9 nM,B12
15,0.3 to 9.9 nM,"{CH2CO}-Y[NMeA]DPHK[Hyp]WKW[NMeNle][NMeNle]ECG[Pra(3)]G (thioether N-14; not fully specified (residue 16, C-terminus)) [Example 14064]"

# Biological target: T1, Recombinant Human PD-L1-TVMV-His
# Assay: HTRF vs PD-1-Ig; A = IC50 0.10-1.6 µM
# Description: as §1
row,IC50,Binder
1,100 to 1600 nM,B13
2,100 to 1600 nM,{CH2CO}-Y[NMeA]DPHK[Hyp]WKW[NMeNle][NMeNle]ECG[Pra(3)]([triazole″-PEG6′-Suc-vitamin E])G (thioether N-14; reading uncertain) [Example 14053]
3,100 to 1600 nM,B14
4,100 to 1600 nM,{CH2CO}-Y[NMeA]DPHK[Hyp]WKW[NMeNle][NMeNle]ECG[Pra(3)]([triazole″-PEG8′-Suc-vitamin E])D (thioether N-14; reading uncertain) [Example 14057]
5,100 to 1600 nM,B15
6,100 to 1600 nM,{CH2CO}-Y[NMeA]NP[Dap]L[Hyp]WS[Bzt][NMeNle][NMeNle]RCG[Pra] (thioether N-14; not fully specified (residue 16)) [Example 14058]
7,100 to 1600 nM,{CH2CO}-Y[NMeA]DPHK[Hyp]WKW[NMeNle][NMeNle]ECG[Pra(3)]([triazole″-PEG4′-Suc-vitamin E])G (thioether N-14; reading uncertain) [Example 14060]
8,100 to 1600 nM,B16
